Broadly, the Km is the substrate concentration at which the rate is half of its maximum.

This is an account of results in PMC5467207, “Single-peptide DNA-dependent RNA polymerase homologous to multi-subunit RNA polymerase” (Nature Communications, 2017).

The subject of series [1] is T1, Nc1nc2c(ncn2[C@@H]2O[C@H](COP(=O)(O)OP(=O)(O)OP(=O)(O)O)[C@@H](O)[C@H]2O)c(=O)[nH]1.
T1 construct: core enzyme without sigma, ~400 kDa five-subunit core (2α, β, β′, ω); 6xHis tag on the RNAP; with DNA-directed RNA polymerase subunit alpha; DNA-directed RNA polymerase subunit omega
Nature of the series: misincorporation in assembled elongation complexes, Urea-PAGE, Michaelis-Menten fit. It is filed as biochemical, Escherichia coli. The following applies: misincorporation (non-cognate NTP for the template base), assembled elongation complex, pH 8.5, MgCl2.

Substrate in series [2]: Nc1ncnc2c1ncn2[C@@H]1O[C@H](COP(=O)(O)OP(=O)(O)OP(=O)(O)O)[C@@H](O)[C@H]1O
Nature of the series: RNA extension in assembled elongation complexes, Urea-PAGE, Michaelis-Menten fit. It is filed as biochemical, Bacillus subtilis. Particulars: 10 °C, assembled elongation complex (template DNA, RNA primer), 20 mM Tris-HCl pH 8.5, 40 mM KCl, 10 mM MgCl2.

Substrate in series [3]: Nc1nc2c(ncn2[C@@H]2O[C@H](COP(=O)(O)OP(=O)(O)OP(=O)(O)O)[C@@H](O)[C@H]2O)c(=O)[nH]1
Nature of the series: misincorporation in assembled elongation complexes, Urea-PAGE, Michaelis-Menten fit. It is filed as biochemical, Bacillus subtilis. The following applies: misincorporation (non-cognate NTP for the template base), assembled elongation complex, pH 8.5, MgCl2.

On to “E. coli core msRNAP (Escherichia coli K-12)”, for which the Km in series [1] came out at 458 ± 23 µM.

B1: YonO (Bacillus subtilis subsp. subtilis str. 168) (protein)
chain: MKGKKDGLNKQVHIYSIDTSAFYNDQENKLHNKILKSYRYRDHLRKLEHVDKKHKKYITQRIISLKEKLYNAFNDHNQIRTLRTDSLKDNNVISLFDSVLTRTLGIKENSLSEEIMVVQTYHFQILRDIIDKGFIHNNEKYVYFTSSAGQIRTKKSCFIKQSTLDKYQNALTCGLSVEHINAQGGSSINKWNSYMALSNSASSSWEIDIDKAIVVNDLETNVSSLVDYIDRDTYEITRKIMDIPIEHTDGCGMMLPSLSQKSFMVRLPWVKGLLVPFDFRKFAEKHSSFIVKDVYGKEWDIIKDDIQIIFTKSQFKMWKYYDSWDDYRYKFKKYGCLGAKLNEEDPSVEGKLTYQMLQTLTDITDEELKQISSKTVSEITQLGTDKETMMKVLGATEKNKHKTSLQEALLIYPELLNDDHTKEIIKNKKKSMIKDAKSGKLLVSDARYTYLCPDLYAFCERLFLGIESPKGLLSGSDVHCSLYDEGYIDILRSPHLFREHGVRWNKKNEEYEKWFITPGVYTSIHDPISKLLQFDNDGDKALIISDELIVNIAKRNMADIVPLYYEMSVAQKQEINSRNIYEALTLAYGINIGEYSNNITKIWNSDNINLDVIKWLCMENNFTIDFAKTLFMPTRPDHVDEKIKDYIKNKVPHFFINAKDKEEHSVESINESTVNKLDSIIPSDRINFAAVAGKFDYRFLLKNKEIKLNEAVINEYKRLDRNKKWLMNDEEAKPGQKLYVYKIIKQKLLEIHNDDGFITDVLVKHLYKKKSKYKSTLWECFGDIVLENIKHNLKTFKGCCICGKAFKPTSNKAKYCQSCGKKKERDKYKKYNKKRINHR
notes: N-terminal 6xHis-tag, pET-28a, expressed in E. coli T7 Express; single chain, ~100 kDa
As to B1, the Km is 1.8 ± 0.7 µM in series [2] and 126 ± 41 µM in series [3].
